Experiment [1] relates to antibodies in sera from HIV-TB+ patients and PPD+/PPD- healthy controls. The experiment is described as follows: ELISA of LipC overlapping peptides with human sera. It counts as binding. The following applies: biotinylated, streptavidin plates, patient sera.
For experiment [2] the test system is unchanged. Kind of experiment: ELISA of PTRP overlapping peptides with human sera. It counts as binding. Particulars: PTRP peptides, biotinylated, streptavidin plates; TB patient sera.
In experiment [3] the test system is anti-LipC antibodies in sera from TB patients. The experiment is described as follows: Western blot of His-tagged LipC probed with human sera. It counts as binding. The following applies: for sera showing anti-LipC antibodies: positive/tested.
For experiment [4], the system named is other ECM proteins tested (fibrinogen, elastin, collagen I-IV, vitronectin). The experiment is described as follows: Western blot binding of rPTRP to other ECM proteins. The following applies: data not shown. More on the design: species or system human.
Experiment [5] relates to fibronectin (human plasma). Kind of experiment: Western blot binding of rPTRP to ECM protein. The following applies: ECM protein 5 μg/ml.
Experiment [6] deals with T1, Thrombospondin (human platelet) (Homo sapiens, UniProt P07996).
T1 construct: Thrombospondin (human platelet) was from Calbiochem, EMD Biosciences Inc; purchased Calbiochem, EMD Biosciences Inc; host or cells: human platelet
Kind of experiment: Western blot binding of rPTRP to ECM protein. Particulars: ECM protein 5 μg/ml. As to the method: The binding of the purified rPTRP to various ECM proteins was determined both by western blotting and ELISA (21). Laminin-1 (human placenta); fibronectin and fibrinogen (human plasma) and elastin (human lung) were obtained from Sigma; human collagen I; collagen III and collagen IV (human placenta), collagen II (human cartilage) and vitronectin (human plasma) from Chemicon International Inc. Temecula, Calif. Thrombospondin (human platelet) was from Calbiochem, EMD Biosciences Inc. and BSA (negative control) was from Promega. Western blots containing rPTRP (0.4 μg/lane) were blocked with 3% BSA in PBS and incubated with the ECM proteins (5 μg/ml) dissolved in PBS. Negative control lanes were incubated with PBS alone. The bound ECM proteins were detected with appropriate anti-ECM antibodies (anti-laminin, anti-fibronectin, anti-thrombospondin and anti-vitronectin at 1:5000; anti-fibrinogen at 1:1000; anti-Col I, Col III, Col IV and anti-elastin at 1:500; anti-Col II at 1:100) followed by appropriate enzyme-conjugated secondary antibodies (anti-rabbit IgG-AP at 1:2000; anti-goat IgG-AP at 1:3000).

The test system of experiment [7] is Laminin-1 (human placenta). The experiment is described as follows: Western blot binding of rPTRP to ECM protein. The following applies: ECM protein 5 μg/ml.
In experiment [8] the test system is fibronectin (human plasma). The experiment is described as follows: ELISA binding of rPTRP to ECM protein. The following applies: rPTRP 5-20 μg/ml coated. On the procedure: (§1) The wells of ELISA plates were coated with various concentration of rPTRP (5-20 μg/ml in PBS) or BSA for 1 h at 37° C. followed by ON at 4° C. Subsequently, the wells were washed with PBS, blocked with 1% BSA in PBS (2 h at 37° C.), washed again with PBST and incubated with different ECM proteins (1 μg/ml; only laminin at 0.5 μg/ml) for 2 h at 37° C. After washing again, the wells were exposed to respective anti-ECM antibodies and the appropriate enzyme-conjugated secondary antibodies to detect the bound ECM proteins.

Experiment [9] concerns Laminin-1 (human placenta). The experiment is described as follows: ELISA binding of rPTRP to ECM protein. Particulars: rPTRP 5-20 μg/ml coated, laminin 0.5 μg/ml. As to the method: as §1
Experiment [10] deals with T1, Thrombospondin (human platelet). The experiment is described as follows: ELISA binding of rPTRP to ECM protein. The following applies: rPTRP 5-20 μg/ml coated. As to the method:
as §1

Experiment [11] deals with anti-PTRP antibodies in sera from TB patients. Kind of experiment: Western blot of rPTRP probed with human sera. Particulars: for sera showing reactivity with the ~52 kDa protein: positive/tested. Format: binding.

T1 sequence (P07996 19-1170): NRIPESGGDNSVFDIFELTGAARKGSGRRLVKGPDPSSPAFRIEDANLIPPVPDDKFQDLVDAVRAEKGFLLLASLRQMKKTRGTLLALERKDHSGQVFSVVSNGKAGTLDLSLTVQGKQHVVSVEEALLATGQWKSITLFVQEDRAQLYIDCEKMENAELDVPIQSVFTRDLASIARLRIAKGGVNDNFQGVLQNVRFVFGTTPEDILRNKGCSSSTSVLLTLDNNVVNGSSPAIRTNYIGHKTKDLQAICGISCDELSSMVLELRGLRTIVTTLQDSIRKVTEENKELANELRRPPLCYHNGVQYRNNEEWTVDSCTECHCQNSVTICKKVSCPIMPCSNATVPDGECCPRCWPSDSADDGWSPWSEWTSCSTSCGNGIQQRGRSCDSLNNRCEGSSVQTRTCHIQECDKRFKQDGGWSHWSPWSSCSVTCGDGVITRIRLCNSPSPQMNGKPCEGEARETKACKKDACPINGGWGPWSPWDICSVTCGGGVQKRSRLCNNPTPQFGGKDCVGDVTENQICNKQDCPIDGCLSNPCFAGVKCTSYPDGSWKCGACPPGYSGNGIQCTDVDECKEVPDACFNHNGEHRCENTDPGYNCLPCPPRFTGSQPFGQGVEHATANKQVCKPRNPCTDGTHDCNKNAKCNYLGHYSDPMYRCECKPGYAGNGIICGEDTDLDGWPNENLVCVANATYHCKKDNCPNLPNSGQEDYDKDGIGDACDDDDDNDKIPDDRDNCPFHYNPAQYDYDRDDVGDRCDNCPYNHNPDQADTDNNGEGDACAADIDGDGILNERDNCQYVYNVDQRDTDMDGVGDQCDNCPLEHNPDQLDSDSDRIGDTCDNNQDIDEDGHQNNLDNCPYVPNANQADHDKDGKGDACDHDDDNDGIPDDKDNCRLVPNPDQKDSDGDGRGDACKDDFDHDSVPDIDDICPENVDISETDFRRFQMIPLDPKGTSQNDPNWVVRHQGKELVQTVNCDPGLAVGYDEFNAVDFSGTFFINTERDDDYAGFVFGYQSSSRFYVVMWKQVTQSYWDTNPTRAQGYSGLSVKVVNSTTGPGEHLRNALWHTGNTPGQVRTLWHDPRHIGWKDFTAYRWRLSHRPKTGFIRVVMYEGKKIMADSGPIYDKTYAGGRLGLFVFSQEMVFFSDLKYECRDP

Consider AHAIALFLNQVHRSRAQFAK [Lp-39], for which, in [1], the Immunoreactive result is reported as “++ (++ immunodominant based on being recognized by 45% or more patient sera)”. In the case of ARPADYMLALSVAGGSLPVV [Lp-3], the Immunoreactive result in [1] is given as “++ (++ immunodominant based on being recognized by 45% or more patient sera)”. Same read-out and setting: the result for GSRDCVIPVEQARSFVERLR [Lp-34] reads “++ (++ immunodominant based on being recognized by 45% or more patient sera)”; that for IAVAGCSAGGHLSALAGLTA [Lp-24], “++ (++ immunodominant based on being recognized by 45% or more patient sera)”; that for NDPQYQAELPEGSDTSVDAV [Lp-26], “++ (++ immunodominant based on being recognized by 45% or more patient sera)”. In the case of QQAPVPPPPPDDPTAGFQGG [PT-34], the Immunoreactive result in [2] was “++ (++ indicates that the peptides were recognized by 40% or more TB patient sera)”. Same read-out and setting: the result for QTPDDPTFALARGAAMAAGA [PT-20] reads “++ (++ indicates that the peptides were recognized by 40% or more TB patient sera)”; that for SAAPGTVIDQFVLDVAEHPV [PT-3], “++ (++ indicates that the peptides were recognized by 40% or more TB patient sera)”. Turning to SVAGGSLPVVGKHLKPLGGV [Lp-4], the Immunoreactive entry in experiment [1] is “++ (++ immunodominant based on being recognized by 45% or more patient sera)”. On the same count and under the same terms, for TAIGVWGARHASDFLSATAK [Lp-6] the value was “++ (++ immunodominant based on being recognized by 45% or more patient sera)”. Take TTPPTTPVTTPPTTPPTTPV [PT-45]: the Immunoreactive entry in experiment [2] was “++ (++ indicates that the peptides were recognized by 40% or more TB patient sera)”.

B1: LipC: purified His-tagged recombinant Mtb LipC protein (SEQ ID NO:6), probable esterase (protein)
chain: MNQRRAAGSTGVAYIRWLLRARPADYMLALSVAGGSLPVVGKHLKPLGGVTAIGVWGARHASDFLSATAKDLLTPGINEVRRRDRASTQEVSVAALRGIVSPDDLAVEWPAPERTPPVCGALRHRRYVHRRRVLYGDDPAQLLDVWRRKDMPTKPAPVLIFVPGGAWVHGSRAIQGYAVLSRLAAQGWVCLSIDYRVAPHHRWPRHILDVKTAIAWARANVDKFGGDRNFIAVAGCSAGGHLSALAGLTANDPQYQAELPEGSDTSVDAVVGIYGRYDWEDRSTPERARFVDFLERVVVQRTIDRHPEVFRDASPIQRVTRNAPPFLVIHGSRDCVIPVEQARSFVERLRAVSRSQVGYLELPGAGHGFDLLDGARTGPTAHAIALFLNQVHRSRAQFAKEVI
modifications: His tag; Mycbacterium tuberculosis Strain H37Rv
For B1, the “sera showing anti-LipC antibodies” value in [3] (HIV+TB+ patients) is 6/6; in experiment [3] (HIV-TB+ patients), 5/6; in experiment [3] (TB patients (HIV-TB+ and HIV+TB+)), 11/12. The “reactivity of control sera” value in experiment [3] (HIV+TB-, HIV-PPD+, HIV-PPD- control sera) is “background cross-reactivity”.

B2: rPTRP: purified recombinant proline-threonine repetitive protein of Mtb (SEQ ID NO:2), GST tag cleaved (protein)
chain: MDVALGVAVTDRVARLALVDSAAPGTVIDQFVLDVAEHPVEVLTETVVGTDRSLAGENHRLVATRLCWPDQAKADELQHALQDSGVHDVAVISEAQAATALVGAAHAGSAVLLVGDETATLSVVGDPDAPPTMVAVAPVAGADATSTVDTLMARLGDQALAPGDVFLVGRSAEHTTVLADQLRAASTMRVQTPDDPTFALARGAAMAAGAATMAHPALVADATTSLPRAEAGQSGSEGEQLAYSQASDYELLPVDEYEEHDEYGAAADRSAPLSRRSLLIGNAVVAFAVIGFASLAVAVAVTIRPTAASKPVEGHQNAQPGKFMPLLPTQQQAPVPPPPPDDPTAGFQGGTIPAVQNVVPRPGTSPGVGGTPASPAPEAPAVPGVVPAPVPIPVPIIIPPFPGWQPGMPTIPTAPPTTPVTTSATTPPTTPPTTPVTTPPTTPPTTPVTTPPTTPPTTPVTTPPTTVAPTTVAPTTVAPTTVAPTTVAPATATPTTVAPQPTQQPTQQPTQQMPTQQQTVAPQTVAPAPQPPSGGRNGSGGGDLFGGF
modifications: GST tag cleaved; possible residual linker residues; Mycobacterium tuberculosis Strain H37Rv
As for B2, the “binding to other ECM proteins” value in experiment [4] is listed as “not with any of the other ECM proteins tested”. Further, the binding to fibronectin entry was “showed binding” in experiment [5] and “in a dose-dependent manner” in experiment [8]. Moreover, the binding to thrombospondin result is on record as “showed binding” in experiment [6] and “in a dose-dependent manner” in experiment [10]. In addition, the figures for the binding to laminin entry in experiment [7] and in experiment [9] were “showed binding” and “in a dose-dependent manner”, respectively. The “sera showing significant reactivity with the protein” value in [11] (6 PPD+, 6 PPD- and 6 HIV+TB- subjects) is given as “none”. In addition, the “sera showing reactivity with the ~52 kDa protein” value in experiment [11] (HIV+TB+ patients) is 5/6; in [11] (HIV-TB+ patients), 4/6.

(Values after patent publication US9335325B2, “Immunodominant Mycobacterium tuberculosis peptides from cell wall proteins for early diagnosis and immunization” (priority 2008, dated 2016).)
